We go through four molecules from publication PMC5446404 (2017).

Experiment [1] concerns the target T1, recombinant human fortilin (Strep-tag II), biotinylated (human, UniProt P13693 1-172, biotinylated (sites not given)).
T1 chain: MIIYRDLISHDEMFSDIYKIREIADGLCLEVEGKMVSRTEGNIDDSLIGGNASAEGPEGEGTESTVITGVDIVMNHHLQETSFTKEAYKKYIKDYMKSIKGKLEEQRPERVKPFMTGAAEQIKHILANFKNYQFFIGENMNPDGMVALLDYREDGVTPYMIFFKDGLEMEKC
Kind of experiment: BLI. On the technique in general: Biolayer interferometry detects binding as a change in optical thickness at a sensor tip.

For experiment [2], the target named is T1, recombinant human fortilin (Strep-tag …). Kind of experiment: BLI; dephosphorylated IRE1α.
The target is the same in experiment [3]. Kind of experiment: BLI; phosphorylated IRE1α.

B1: GST-IRE1α-C (aa 468-977) (domain or fragment)
chain: MHQQQQLQHQQFQKELEKIQLLQQQQQQLPFHPPGDTAQDGELLDTSGPYSESSGTSSPSTSPRASNHSLCSGSSASKAGSSPSLEQDDGDEETSVVIVGKISFCPKDVLGHGAEGTIVYRGMFDNRDVAVKRILPECFSFADREVQLLRESDEHPNVIRYFCTEKDRQFQYIAIELCAATLQEYVEQKDFAHLGLEPITLLQQTTSGLAHLHSLNIVHRDLKPHNILISMPNAHGKIKAMISDFGLCKKLAVGRHSFSRRSGVPGTEGWIAPEMLSEDCKENPTYTVDIFSAGCVFYYVISEGSHPFGKSLQRQANILLGACSLDCLHPEKHEDVIARELIEKMIAMDPQKRPSAKHVLKHPFFWSLEKQLQFFQDVSDRIEKESLDGPIVKQLERGGRAVVKMDWRENITVPLQTDLRKFRTYKGGSVRDLLRAMRNKKHHYRELPAEVRETLGSLPDDFVCYFTSRFPHLLAHTYRAMELCSHERLFQPYYFHEPPEPQPPVTPDAL
As for B1, the Kd – broadly, the concentration at which binding is half-saturated – in experiment [1] was determined as 0.67 µM.

B2: GST-IRE1α-TM (aa 401-500) (domain or fragment)
chain: EEVINLVDQTSENAPTTVSRDVEEKPAHAPARPEAPVDSMLKDMATIILSTFLLIGWVAFIITYPLSMHQQQQLQHQQFQKELEKIQLLQQQQQQLPFHP
B2: in experiment [1], the Kd came out at 4190 µM.

B3: de-phosphorylated IRE1α-Myc-DDK (aa 1-977) (natural protein)
chain: IFGSTSTVTLPETLLFVSTLDGSLHAVSKRTGSIKWTLKEDPVLQVPTHVEEPAFLPDPNDGSLYTLGSKNNEGLTKLPFTIPELVQASPCRSSDGILYMGKKQDIWYVIDLLTGEKQQTLSSAFADSLCPSTSLLYLGRTEYTITMYDTKTRELRWNATYFDYAASLPEDDVDYKMSHFVSNGDGLVVTVDSESGDVLWIQNYASPVVAFYVWQREGLRKVMHINVAVETLRYLTFMSGEVGRITKWKYPFPKETEAKSKLTPTLYVGKYSTSLYASPSMVHEGVAVVPRGSTLPLLEGPQTDGVTIGDKGECVITPSTDVKFDPGLKSKNKLNYLRNYWLLIGHHETPLSASTKMLERFPNNLPKHRENVIPADSEKKSFEEVINLVDQTSENAPTTVSRDVEEKPAHAPARPEAPVDSMLKDMATIILSTFLLIGWVAFIITYPLSMHQQQQLQHQQFQKELEKIQLLQQQQQQLPFHPPGDTAQDGELLDTSGPYSESSGTSSPSTSPRASNHSLCSGSSASKAGSSPSLEQDDGDEETSVVIVGKISFCPKDVLGHGAEGTIVYRGMFDNRDVAVKRILPECFSFADREVQLLRESDEHPNVIRYFCTEKDRQFQYIAIELCAATLQEYVEQKDFAHLGLEPITLLQQTTSGLAHLHSLNIVHRDLKPHNILISMPNAHGKIKAMISDFGLCKKLAVGRHSFSRRSGVPGTEGWIAPEMLSEDCKENPTYTVDIFSAGCVFYYVISEGSHPFGKSLQRQANILLGACSLDCLHPEKHEDVIARELIEKMIAMDPQKRPSAKHVLKHPFFWSLEKQLQFFQDVSDRIEKESLDGPIVKQLERGGRAVVKMDWRENITVPLQTDLRKFRTYKGGSVRDLLRAMRNKKHHYRELPAEVRETLGSLPDDFVCYFTSRFPHLLAHTYRAMELCSHERLFQPYYFHEPPEPQPPVTPDAL
On to B3, for which the Kd in experiment [2] was found to be 1.05 µM.

B4: recombinant human phospho-IRE1α-Myc-DDK (aa 1-977) (natural protein)
chain: B3 chain
modifications: phosphorylated (sites not stated for this preparation)
For B4, the Kd in experiment [3] came to 0.32 µM.
